The text below walks through data of the supplement of paper PMC10567573.

The chains are these.
B1: NEK8 (parent)
chain: YTFGSNQHGQLGTNTRRGSRAPCK
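Also: lentivirally expressed fusions sorted by FACS into six bins by GFP to DsRed ratio, PSI derived from sequencing read proportions per bin multiplied by bin number.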

Variants of B1 are the subject of the series. The experiment in a line: protein stability index of a GFP-peptide fusion (GPS, HEK-293T) (PSI 1-6); higher = more stable. To be noted: c terminus: a fixed tail appended.
As to YTFGSNQHGQLGTNTRRGSRAPMK [C23M], the protein stability index is 3.61.
For the variant YTFGSNQHGQLGTNTRRGSRAPAK [C23A], the protein stability index amounted to 3.95.
The same measure for YTFGSNQHGQLGTNTRRGSRAPVK [C23V]: 4.25; for YTFGSNQHGQLGTNTRRGSRAPLK [C23L]: 3.91.
Take YTFGSNQHGQLGTNTRRGSRAPWK [C23W]: the protein stability index stood at 3.37.
Consider YTFGSNQHGQLGTNTRRGSRAPDK [C23D], for which the protein stability index worked out at 4.19.
In the case of YTFGSNQHGQLGTNTRRGSRAPFK [C23F], the protein stability index was 3.61.
On to YTFGSNQHGQLGTNTRRGSRAPIK [C23I], for which the protein stability index amounted to 3.59.
Consider YTFGSNQHGQLGTNTRRGSRAPRK [C23R], for which the protein stability index is 4.
The same measure for YTFGSNQHGQLGTNTRRGSRAPYK [C23Y]: 3.46; for YTFGSNQHGQLGTNTRRGSRAPSK [C23S]: 3.72.
To YTFGSNQHGQLGTNTRRGSRAPPK [C23P] belongs 3.89.
Regarding YTFGSNQHGQLGTNTRRGSRAPEK [C23E], the protein stability index was determined as 4.27.
YTFGSNQHGQLGTNTRRGSRAPQK [C23Q]: the protein stability index is 4.18.
Turning to YTFGSNQHGQLGTNTRRGSRAPNK [C23N], the protein stability index came out at 4.19.
On to YTFGSNQHGQLGTNTRRGSRAPTK [C23T], for which the protein stability index was 3.9.
The same measure for YTFGSNQHGQLGTNTRRGSRAPKK [C23K]: 4.21; for YTFGSNQHGQLGTNTRRGSRAPGK [C23G]: 3.4.
The same measure for YTFGSNQHGQLGTNTRRGSRAPHK [C23H]: 4.25.
As for YTFGSNQHGQLGTNTRAGSRAPCK [R17A], the protein stability index is 3.46.
For the variant YTFGSNQHGQLGTNTRQGSRAPCK [R17Q], the protein stability index worked out at 4.02.
The same measure for YTFGSNQHGQLGTNTRSGSRAPCK [R17S]: 3.81; for YTFGSNQHGQLGTNTRPGSRAPCK [R17P]: 3.75.
As to YTFGSNQHGQLGTNTRKGSRAPCK [R17K], the protein stability index amounted to 3.73.
With YTFGSNQHGQLGTNTRTGSRAPCK [R17T], the protein stability index is 3.65.
For YTFGSNQHGQLGTNTRLGSRAPCK [R17L], the protein stability index turned out to be 3.92.
The same measure for YTFGSNQHGQLGTNTREGSRAPCK [R17E]: 4.07; for YTFGSNQHGQLGTNTRYGSRAPCK [R17Y]: 3.5; for YTFGSNQHGQLGTNTRDGSRAPCK [R17D]: 3.84.
On to YTFGSNQHGQLGTNTRGGSRAPCK [R17G], for which the protein stability index worked out at 4.09.
To YTFGSNQHGQLGTNTRNGSRAPCK [R17N] belongs 3.97; to YTFGSNQHGQLGTNTRCGSRAPCK [R17C], 3.07.
The same measure for YTFGSNQHGQLGTNTRIGSRAPCK [R17I]: 3.51; for YTFGSNQHGQLGTNTRHGSRAPCK [R17H]: 3.94; for YTFGSNQHGQLGTNTRMGSRAPCK [R17M]: 3.88.
With YTFGSNQHGQLGTNTRFGSRAPCK [R17F], the protein stability index worked out at 3.18.
As for YTFGSNQHGQLGTNTRVGSRAPCK [R17V], the protein stability index turned out to be 3.66.
To YTFGSNQHGQLGTNTRRGSHAPCK [R20H] belongs 3.96.
To YTFGSNQHGQLGTNTRRGSCAPCK [R20C] belongs 3.33; to YTFGSNQHGQLGTNTRRGSWAPCK [R20W], 2.21; to YTFGSNQHGQLGTNTRRGSDAPCK [R20D], 3.81.
With YTFGSNQHGQLGTNTRRGSQAPCK [R20Q], the protein stability index was determined as 4.17.
As for YTFGSNQHGQLGTNTRRGSYAPCK [R20Y], the protein stability index stood at 3.07.
For YTFGSNQHGQLGTNTRRGSSAPCK [R20S], the protein stability index came to 3.55.
Consider YTFGSNQHGQLGTNTRRGSTAPCK [R20T], for which the protein stability index was 3.86.
In the case of YTFGSNQHGQLGTNTRRGSLAPCK [R20L], the protein stability index was 3.53.
Turning to YTFGSNQHGQLGTNTRRGSFAPCK [R20F], the protein stability index is 2.85.
For the variant YTFGSNQHGQLGTNTRRGSNAPCK [R20N], the protein stability index turned out to be 4.05.
For YTFGSNQHGQLGTNTRRGSGAPCK [R20G], the protein stability index was determined as 3.97.
Regarding YTFGSNQHGQLGTNTRRGSAAPCK [R20A], the protein stability index came out at 4.07.
Consider YTFGSNQHGQLGTNTRRGSKAPCK [R20K], for which the protein stability index was found to be 4.38.
As to YTFGSNQHGQLGTNTRRGSMAPCK [R20M], the protein stability index turned out to be 3.15.
Take YTFGSNQHGQLGTNTRRGSIAPCK [R20I]: the protein stability index came to 3.52.
For YTFGSNQHGQLGTNTRRGSPAPCK [R20P], the protein stability index was 3.83.
Take YTFGSNQHGQLGTNTRRGSVAPCK [R20V]: the protein stability index was determined as 3.48.
Turning to YTFGSNQHGQLGTNTRRGSEAPCK [R20E], the protein stability index is 4.1.
Regarding YTFGSNQHGQLGTNTRRISRAPCK [G18I], the protein stability index stood at 3.61.
As for YTFGSNQHGQLGTNTRRHSRAPCK [G18H], the protein stability index worked out at 3.52.
The same measure for YTFGSNQHGQLGTNTRRASRAPCK [G18A]: 3.33; for YTFGSNQHGQLGTNTRRMSRAPCK [G18M]: 3.47.
With YTFGSNQHGQLGTNTRRLSRAPCK [G18L], the protein stability index amounted to 3.77.
On to YTFGSNQHGQLGTNTRRCSRAPCK [G18C], for which the protein stability index amounted to 3.48.
On to YTFGSNQHGQLGTNTRRFSRAPCK [G18F], for which the protein stability index stood at 2.85.
As to YTFGSNQHGQLGTNTRRSSRAPCK [G18S], the protein stability index came to 3.43.
As for YTFGSNQHGQLGTNTRRESRAPCK [G18E], the protein stability index stood at 3.69.
Consider YTFGSNQHGQLGTNTRRRSRAPCK [G18R], for which the protein stability index was found to be 3.95.
To YTFGSNQHGQLGTNTRRTSRAPCK [G18T] belongs 4.08.
Take YTFGSNQHGQLGTNTRRDSRAPCK [G18D]: the protein stability index was found to be 3.94.
Turning to YTFGSNQHGQLGTNTRRWSRAPCK [G18W], the protein stability index was found to be 3.23.
As to YTFGSNQHGQLGTNTRRPSRAPCK [G18P], the protein stability index came to 3.53.
For YTFGSNQHGQLGTNTRRVSRAPCK [G18V], the protein stability index stood at 3.46.
The same measure for YTFGSNQHGQLGTNTRRNSRAPCK [G18N]: 3.81; for YTFGSNQHGQLGTNTRRQSRAPCK [G18Q]: 3.27.
Take YTFGSNQHGQLGTNTRRYSRAPCK [G18Y]: the protein stability index was determined as 3.26.
With YTFGSNQHGQLGTNTRRKSRAPCK [G18K], the protein stability index stood at 4.05.
The same measure for YTFGSNQHGQLGTNTRRGSRAQCK [P22Q]: 3.73.
Take YTFGSNQHGQLGTNTRRGSRAVCK [P22V]: the protein stability index is 3.99.
Take YTFGSNQHGQLGTNTRRGSRASCK [P22S]: the protein stability index came out at 3.96.
The same measure for YTFGSNQHGQLGTNTRRGSRACCK [P22C]: 3.84; for YTFGSNQHGQLGTNTRRGSRAGCK [P22G]: 4.3.
To YTFGSNQHGQLGTNTRRGSRALCK [P22L] belongs 3.4.
Take YTFGSNQHGQLGTNTRRGSRAICK [P22I]: the protein stability index turned out to be 3.94.
As for YTFGSNQHGQLGTNTRRGSRATCK [P22T], the protein stability index worked out at 3.95.
Consider YTFGSNQHGQLGTNTRRGSRAMCK [P22M], for which the protein stability index worked out at 3.44.
Take YTFGSNQHGQLGTNTRRGSRARCK [P22R]: the protein stability index is 3.82.
YTFGSNQHGQLGTNTRRGSRAFCK [P22F]: the protein stability index was 3.66.
With YTFGSNQHGQLGTNTRRGSRAYCK [P22Y], the protein stability index stood at 3.72.
Consider YTFGSNQHGQLGTNTRRGSRAECK [P22E], for which the protein stability index is 3.88.
For YTFGSNQHGQLGTNTRRGSRAKCK [P22K], the protein stability index amounted to 3.82.
Take YTFGSNQHGQLGTNTRRGSRAWCK [P22W]: the protein stability index came out at 3.51.
Turning to YTFGSNQHGQLGTNTRRGSRAHCK [P22H], the protein stability index is 3.53.
Regarding YTFGSNQHGQLGTNTRRGSRADCK [P22D], the protein stability index turned out to be 4.13.
With YTFGSNQHGQLGTNTRRGSRANCK [P22N], the protein stability index turned out to be 4.22.
As for YTFGSNQHGQLGTNTRRGSRAACK [P22A], the protein stability index is 3.82.
